Results from US20170296640A1 (IMMATICS BIOTECHNOLOGIES, published 2017).

Target: T1, HLA-A*02:01 (peptide-receptive MHC class I monomer after UV cleavage of the UV-sensitive ligand) (human)
T1 construct: MHC monomers loaded by UV-ligand exchange and captured on streptavidin plates
Experiment: UV ligand-exchange ELISA; exchange yield grade (+ >=10%, ++ >=20%, +++ >=50%, ++++ >=75%)
Source text: Candidate peptides for T cell based therapies according to the present invention were further tested for their MHC binding capacity (affinity). The individual peptide-MHC complexes were produced by UV-ligand exchange, where a UV-sensitive peptide is cleaved upon UV-irradiation, and exchanged with the peptide of interest as analyzed. Only peptide candidates that can effectively bind and stabilize the peptide-receptive MHC molecules prevent dissociation of the MHC complexes. To determine the yield of the exchange reaction, an ELISA was performed based on the detection of the light chain (β2m) of stabilized MHC complexes. The assay was performed as generally described in Rodenko et al. (Rodenko et al., 2006).
96 well MAXISorp plates (NUNC) were coated over night with 2 ug/ml streptavidin in PBS at room temperature, washed 4× and blocked for 1 h at 37° C. in 2% BSA containing blocking buffer. Refolded HLA-A*02:01/MLA-001 monomers served as standards, covering the range of 15-500 ng/ml. Peptide-MHC monomers of the UV-exchange reaction were diluted 100 fold in blocking buffer. Samples were incubated for 1 h at 37° C., washed four times, incubated with 2 ug/ml HRP conjugated anti-β2m for 1 h at 37° C., washed again and detected with TMB solution that is stopped with […]. Absorption was measured at 450 nm. Candidate peptides that show a high exchange yield (preferably higher than 50%, most preferred higher than 75%) are generally preferred for a generation and production of antibodies or fragments thereof, and/or T cell receptors or fragments thereof, as they show sufficient avidity to the MHC molecules and prevent dissociation of the MHC complexes.

Binder | peptide exchange yield
FLNSFVFKM [FLNSFVFKM (SEQ ID NO: 187)] | 20 to 50%
FVDTNLYFL [FVDTNLYFL (SEQ ID NO: 179)] | 50 to 75%
GLVGLLEQA [GLVGLLEQA (SEQ ID NO: 207)] | ≥ 75%
FLDVSRDFV [FLDVSRDFV (SEQ ID NO: 186)] | 20 to 50%
ALAAGGYDV [ALAAGGYDV (SEQ ID NO: 202)] | 20 to 50%
GILQLVESV [GILQLVESV (SEQ ID NO: 180)] | 50 to 75%
FLLDTISGL [FLLDTISGL (SEQ ID NO: 209)] | 50 to 75%
ALIPDLNQI [ALIPDLNQI (SEQ ID NO: 195)] | 50 to 75%
GLSDISAQV [GLSDISAQV (SEQ ID NO: 191)] | 50 to 75%
ILDTIFHKV [ILDTIFHKV (SEQ ID NO: 203)] | 50 to 75%
KLLEEIEFL [KLLEEIEFL (SEQ ID NO: 165)] | 50 to 75%
GMAAEVPKV [GMAAEVPKV (SEQ ID NO: 192)] | 20 to 50%
FIAQLNNVEL [FIAQLNNVEL (SEQ ID NO: 185)] | 50 to 75%
AVLGTSWQL [AVLGTSWQL (SEQ ID NO: 184)] | 50 to 75%
FIDDLFAFV [FIDDLFAFV (SEQ ID NO: 211)] | 50 to 75%
GLLSAVSSV [GLLSAVSSV (SEQ ID NO: 198)] | 50 to 75%
FLAVSLPLL [FLAVSLPLL (SEQ ID NO: 208)] | 50 to 75%
FLAEQFEFL [FLAEQFEFL (SEQ ID NO: 210)] | 50 to 75%
GLEDEMYEV [GLEDEMYEV (SEQ ID NO: 188)] | 20 to 50%
KLTDQPPLV [KLTDQPPLV (SEQ ID NO: 18)] | 50 to 75%
GLIELVDQL [GLIELVDQL (SEQ ID NO: 190)] | 50 to 75%
LLFDQNDKV [LLFDQNDKV (SEQ ID NO: 181)] | 50 to 75%
ALFKEAYSL [ALFKEAYSL (SEQ ID NO: 21)] | 50 to 75%

The remaining lines, values ahead:

peptide exchange yield | Binder
50 to 75% | VLFETVLTI [VLFETVLTI (SEQ ID NO: 183)]
20 to 50% | YLLTDNVVKL [YLLTDNVVKL (SEQ ID NO: 197)]
50 to 75% | VMESILLRL [VMESILLRL (SEQ ID NO: 175)]
≥ 75% | VLVEITDVDFAA [VLVEITDVDFAA (SEQ ID NO: 174)]
20 to 50% | SAVSGQWEV [SAVSGQWEV (SEQ ID NO: 206)]
50 to 75% | SSLEENLLHQV [SSLEENLLHQV (SEQ ID NO: 169)]
50 to 75% | SLFDGAVISTV [SLFDGAVISTV (SEQ ID NO: 164)]
50 to 75% | TLFYESPHL [TLFYESPHL (SEQ ID NO: 205)]
50 to 75% | YLYEAEEATTL [YLYEAEEATTL (SEQ ID NO: 177)]
50 to 75% | YLHIYESQL [YLHIYESQL (SEQ ID NO: 176)]
50 to 75% | SLSHLVPAL [SLSHLVPAL (SEQ ID NO: 189)]
≥ 75% | TLQDSLEFI [TLQDSLEFI (SEQ ID NO: 172)]
50 to 75% | YLNISQVNV [YLNISQVNV (SEQ ID NO: 201)]
50 to 75% | LLSEETPSA [LLSEETPSA (SEQ ID NO: 2)]
50 to 75% | SLLSPLLSV [SLLSPLLSV (SEQ ID NO: 168)]
50 to 75% | SLNSTTWKV [SLNSTTWKV (SEQ ID NO: 199)]

peptide exchange yield | Binder
20 to 50% | RLCDIVVNV [RLCDIVVNV (SEQ ID NO: 204)]
50 to 75% | SLFSITKSV [SLFSITKSV (SEQ ID NO: 167)]
50 to 75% | NLMLELETV [NLMLELETV (SEQ ID NO: 161)]
20 to 50% | SLADSMPSL [SLADSMPSL (SEQ ID NO: 193)]
≥ 75% | VLEAILPLV [VLEAILPLV (SEQ ID NO: 19)]
≥ 75% | LLPPPPPVA [LLPPPPPVA (SEQ ID NO: 182)]
≥ 75% | SIFDAVLKGV [SIFDAVLKGV (SEQ ID NO: 163)]
≥ 75% | RLADLKVSI [RLADLKVSI (SEQ ID NO: 162)]
20 to 50% | SLAPFDREPFTL [SLAPFDREPFTL (SEQ ID NO: 194)]
50 to 75% | VIIPLLSSV [VIIPLLSSV (SEQ ID NO: 17)]
≥ 75% | TLLDVISAL [TLLDVISAL (SEQ ID NO: 171)]
≥ 75% | VILDSVASV [VILDSVASV (SEQ ID NO: 173)]
50 to 75% | YVLQGEFFL [YVLQGEFFL (SEQ ID NO: 178)]
20 to 50% | TLIAAILYL [TLIAAILYL (SEQ ID NO: 16)]
≥ 75% | YLLDFEDRL [YLLDFEDRL (SEQ ID NO: 200)]
